The record followed here is the supplement of paper PMC10126150.

± gives the standard deviation of the averaged measurements.
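Further: ATP exposure 15 min at 22 °C before imaging.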

The data set concerns ATP. The data set is described as follows: switch fluorescence ratio, 500 uM ATP over buffer (Cy3 cluster intensity, sum of 5 cycles each) (fold (ratio)); higher = stronger signal-on switching upon ATP binding; sequences stand for … in TCGTCGGCAGCGTCAGATGTGTATAAGAGACAGTTTTTTTTTTTTTTTTTTTTTTTTT…TC. As to conditions: aptamer strand: ATP DNA aptamer (quencher-CACCTGGGGGAGTATTGCGGAGGAAGG + anchor), 100 nM annealed; ATP concentration: 500 uM. The method in brief:
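Values give the fluorescence ratio for each switch-domain sequence, averaged from per-cluster ratios of summed target-cycle to summed buffer-cycle Cy3 intensity. The Cy3-labelled switching-strand clusters sat on a modified Illumina MiSeq flow-cell, were annealed to 100 nM quencher-labelled ATP aptamer, and were imaged in selection buffer, then after 15 min with 500 uM ATP at 22 °C. Five cycles ran with NaOH stripping and re-annealing between them, and clusters outside 100-1000 RFU were excluded.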
Take CAGGGCTATT: the switch fluorescence ratio is 1.01 ± 0.037.
Take ATTAGGTTTC: the switch fluorescence ratio is 1.01 ± 0.062.
Consider AGAATAATGG, for which the switch fluorescence ratio was determined as 1 ± 0.022.
Turning to TTGTTCGATT, the switch fluorescence ratio amounted to 1 ± 0.034.
In the case of GAAGGAAGTG it was 1 ± 0.034.
With AGGTTATTAT, the switch fluorescence ratio worked out at 0.999 ± 0.029.
With GGATCACTTA, the switch fluorescence ratio stood at 1.02 ± 0.023.
In the case of CTCACTATGA it was 0.99239 ± 0.0009; in that of GAACACTTAT, 1.04 ± 0.044.
Regarding TTATGGGGGA, the switch fluorescence ratio stood at 1.01 ± 0.018.
Consider GTGGACTTGC, for which the switch fluorescence ratio was found to be 0.973 ± 0.042.
On to AAGTTAAAAT, for which the switch fluorescence ratio amounted to 1.012 ± 0.0074.
Turning to TTTCTGGCAA, the switch fluorescence ratio stood at 1.32 ± 0.38.
The result for CTGATGTGGC reads 1.06 ± 0.011; that for AACGCCAGGC, 1.01 ± 0.028.
The result for AAACGAGGTC reads 1.01 ± 0.032; that for ACCAATTGGT, 1.02 ± 0.012.
Turning to TCCATTGTCC, the switch fluorescence ratio was 1.08 ± 0.052.
Consider CACCATTAAT, for which the switch fluorescence ratio was found to be 1.01 ± 0.017.
In the case of GCGTCGCTTT, the switch fluorescence ratio worked out at 0.952 ± 0.046.
For TTTCCCGTTT, the switch fluorescence ratio amounted to 1.13 ± 0.095.
In the case of AAGTTTTTGG, the switch fluorescence ratio stood at 1.01 ± 0.03.
On to AGTATCACGG, for which the switch fluorescence ratio stood at 1.011 ± 0.0068.
The result for AGGCGTATAC reads 1.79 ± 0.18; that for TTTAAGCAAG, 1.062 ± 0.0077; that for TGTGGCAGTT, 1.02 ± 0.027.
Turning to GGTTAGGTCG, the switch fluorescence ratio is 1.06 ± 0.081.
Turning to TCTGCTAAAG, the switch fluorescence ratio amounted to 1.01 ± 0.022.
Take TTTTTTCCCC: the switch fluorescence ratio worked out at 1.04 ± 0.047.
For the sequence TTAGGGTTGT, the switch fluorescence ratio amounted to 1 ± 0.023.
As to CTTTAAGGGC, the switch fluorescence ratio is 0.986 ± 0.022.
The result for ATGGTGGTTT reads 0.998 ± 0.063; that for TCCGAGAGAG, 1.25 ± 0.053.
Take GGCCTGGGGT: the switch fluorescence ratio came to 0.996 ± 0.029.
For the sequence AAGTTTGTCA, the switch fluorescence ratio is 0.955 ± 0.017.
For the sequence CAACTGCGTG, the switch fluorescence ratio was found to be 0.989 ± 0.013.
As for AGCATGAGAT, the switch fluorescence ratio was 1.03 ± 0.039.
Regarding TTTGAGCTCT, the switch fluorescence ratio was determined as 0.97 ± 0.014.
As to TCTGTGCTGG, the switch fluorescence ratio is 0.98 ± 0.024.
TCGAGGGCGA: the switch fluorescence ratio stood at 1.146 ± 0.0097.
The result for GCAGTCTTTG reads 0.9936 ± 0.0046; that for CACGTGTTGC, 1.04 ± 0.03.
For the sequence CTGGTCGTGC, the switch fluorescence ratio is 0.999 ± 0.013.
As for CTGCTGCAGG, the switch fluorescence ratio is 1.03 ± 0.044.
On to GAAATCATGT, for which the switch fluorescence ratio was 0.977 ± 0.023.
As to TTTTTCGTTA, the switch fluorescence ratio was 1.1 ± 0.083.
Take GTTCTGATGT: the switch fluorescence ratio amounted to 1.01 ± 0.029.
With GGATGATGGG, the switch fluorescence ratio turned out to be 1.01 ± 0.046.
The result for AATTGGGACA reads 1 ± 0.01.
In the case of GTAGGACGGG it was 0.995 ± 0.012; in that of ATTCAGTTGG, 0.9776 ± 0.0071.
The result for TTGATTTATA reads 0.983 ± 0.042.
For the sequence TTCGGATATA, the switch fluorescence ratio was determined as 0.9915 ± 0.0063.
Consider GACATTTCGT, for which the switch fluorescence ratio was 0.992 ± 0.019.
As to TAATGTGTGT, the switch fluorescence ratio was found to be 1.016 ± 0.0091.
In the case of GCTGGAGGTC, the switch fluorescence ratio was 1.01 ± 0.03.
For the sequence TTATAGCCTT, the switch fluorescence ratio stood at 1.04 ± 0.046.
With AACTTGGTTT, the switch fluorescence ratio is 0.961 ± 0.056.
For the sequence ATATGAGGGG, the switch fluorescence ratio worked out at 0.965 ± 0.027.
With AGATATCATT, the switch fluorescence ratio came out at 0.9848 ± 0.0086.
For ACACCAGGGG, the switch fluorescence ratio came to 4.18 ± 0.57.
Consider CATTATTATG, for which the switch fluorescence ratio amounted to 1.03 ± 0.036.
As to TTTCGGAACA, the switch fluorescence ratio stood at 1.001 ± 0.0066.
In the case of GGGATGATAG, the switch fluorescence ratio worked out at 0.959 ± 0.032.
Take AGTGAGGCGG: the switch fluorescence ratio turned out to be 1.02 ± 0.013.
The result for CAACTAAATT reads 1.01 ± 0.025; that for CTGACACCCG, 1.07 ± 0.039.
For CATTAAATTT, the switch fluorescence ratio came out at 1.02 ± 0.011.
As for CAGGATTTGG, the switch fluorescence ratio was determined as 0.985 ± 0.013.
For the sequence TAATATCGGG, the switch fluorescence ratio came to 0.98 ± 0.027.
As to GGTTCTTATT, the switch fluorescence ratio is 1.017 ± 0.0064.
Regarding TAGTAGCTGT, the switch fluorescence ratio was 1.04 ± 0.089.
AATTATTTTA: the switch fluorescence ratio is 1.022 ± 0.0018.
Take ACTGGTTCGT: the switch fluorescence ratio worked out at 0.998 ± 0.012.
GGTCTGTTAT: the switch fluorescence ratio was 1.04 ± 0.078.
With TGATATTCGA, the switch fluorescence ratio was 0.997 ± 0.012.
Regarding CGTATAAAAA, the switch fluorescence ratio was determined as 0.971 ± 0.068.
In the case of GGCTGGGCAG it was 0.981 ± 0.035.
ATTGGAGCGT: the switch fluorescence ratio turned out to be 0.986 ± 0.0013.
Take AGAAGGGTTA: the switch fluorescence ratio was 1.01 ± 0.017.
Turning to CGAGGCAGCA, the switch fluorescence ratio was 1.199 ± 0.009.
Turning to TAACGTCCAG, the switch fluorescence ratio turned out to be 0.978 ± 0.012.
On to GACAAATGTG, for which the switch fluorescence ratio turned out to be 0.99815 ± 0.00093.
As to TTTAATACTT, the switch fluorescence ratio was determined as 1.03 ± 0.0052.
On to GCTGGTGTTG, for which the switch fluorescence ratio was 1 ± 0.013.
On to CGGAATTTTT, for which the switch fluorescence ratio was determined as 0.971 ± 0.016.
With CTTGGTCGGC, the switch fluorescence ratio amounted to 1.068 ± 0.0026.
Turning to CGTAATATTA, the switch fluorescence ratio was determined as 1.07 ± 0.01.
TTCAGATTGC: the switch fluorescence ratio is 0.987 ± 0.044.
For the sequence GGTGGGAAGG, the switch fluorescence ratio worked out at 0.993 ± 0.02.
In the case of ATGTGGGGAC it was 1.01 ± 0.084; in that of GCTTGGGATT, 0.977 ± 0.029; in that of ACATGATGTT, 1 ± 0.028.
As to TTCGATAATC, the switch fluorescence ratio was 1.15 ± 0.16.
TTGGTACGGA: the switch fluorescence ratio is 0.986 ± 0.019.
Regarding TTAGTTATTT, the switch fluorescence ratio is 0.999 ± 0.035.
As to TCATGGTACG, the switch fluorescence ratio was found to be 1.06 ± 0.022.
The result for TCAGTCATCT reads 1 ± 0.013.
Regarding GCTCTGGCAA, the switch fluorescence ratio was 1.57 ± 0.07.
As for TTGGTATGAC, the switch fluorescence ratio is 0.988 ± 0.076.
Turning to AAGGGAGGCT, the switch fluorescence ratio is 1.01 ± 0.066.
The result for ACGTGGTGTG reads 1.015 ± 0.0075; that for AATGGTTCTC, 0.985 ± 0.022; that for AGTTACTTAG, 1.07 ± 0.038.
For TATAGCTTTT, the switch fluorescence ratio is 0.9869 ± 0.0031.
In the case of TGCTATAATG it was 1.02 ± 0.021.
For CGGAGCTCTG, the switch fluorescence ratio was found to be 1.06 ± 0.015.
In the case of AAGGCGCGGT it was 1.03 ± 0.011; in that of GGAGATATTA, 1.01 ± 0.026.
Turning to AGGTCTAGAC, the switch fluorescence ratio was determined as 1.04 ± 0.0095.
In the case of AAGATTCATT it was 0.99763 ± 0.00055; in that of TGGGGGACGG, 1 ± 0.035.
Turning to GAGTGGCTGG, the switch fluorescence ratio worked out at 0.979 ± 0.014.
For AACTCAAGGG, the switch fluorescence ratio was determined as 1.0096 ± 0.00058.
For GAAGGTAGAG, the switch fluorescence ratio came to 0.99 ± 0.042.
Consider ACACTATAAT, for which the switch fluorescence ratio was 1.09 ± 0.014.
On to GATGCGTACG, for which the switch fluorescence ratio worked out at 1 ± 0.055.
Turning to TCCATGGGGT, the switch fluorescence ratio amounted to 0.9836 ± 0.0079.
The result for CAGTGTCCGC reads 1.07 ± 0.018.
In the case of TCAAACAGTG, the switch fluorescence ratio came out at 1.02 ± 0.039.
